# What was measured:
# [1] = molecular target: T1, biotinylated hepatocyte growth factor receptor (HGFR) (Homo sapiens (assumed; species not …, UniProt P08581, biotin); experiment: flow cytometry of antibody-coated beads; IgG (0.076 ug/mL) captured on Protein A Dynabeads overnight; biotinylated HGFR in PBSB at a range of concentrations at 10x molar excess, 3 h, room temperature; detected with streptavidin-AF647; median fluorescence; settings: both partners purified
# T1 construct: hepatocyte growth factor receptor (c-Met, tyrosine-protein kinase Met); bought biotinylated protein; The library sorting and the scFab measurements on yeast used another construct (extracellular domain as Fc fusion, Acro Biosciences MET-H5256); also called c-Met; tyrosine-protein kinase Met; source: bought: Sino Biological 10692-H27H-B
# [2] = molecular target: T1, biotinylated hepatocyte growth factor …; experiment: flow cytometry of antibody-coated beads; single point; IgG (15 ug/mL) captured on Protein A Dynabeads overnight at 4 C; 1 nM biotinylated HGFR or 0.1 mg/mL biotinylated ovalbumin in PBSB, 3 h, room temperature; streptavidin-AF647; scores normalised between emibetuzumab (high) and elotuzumab (low); settings: both partners purified
# T1 sequence (P08581 25-932): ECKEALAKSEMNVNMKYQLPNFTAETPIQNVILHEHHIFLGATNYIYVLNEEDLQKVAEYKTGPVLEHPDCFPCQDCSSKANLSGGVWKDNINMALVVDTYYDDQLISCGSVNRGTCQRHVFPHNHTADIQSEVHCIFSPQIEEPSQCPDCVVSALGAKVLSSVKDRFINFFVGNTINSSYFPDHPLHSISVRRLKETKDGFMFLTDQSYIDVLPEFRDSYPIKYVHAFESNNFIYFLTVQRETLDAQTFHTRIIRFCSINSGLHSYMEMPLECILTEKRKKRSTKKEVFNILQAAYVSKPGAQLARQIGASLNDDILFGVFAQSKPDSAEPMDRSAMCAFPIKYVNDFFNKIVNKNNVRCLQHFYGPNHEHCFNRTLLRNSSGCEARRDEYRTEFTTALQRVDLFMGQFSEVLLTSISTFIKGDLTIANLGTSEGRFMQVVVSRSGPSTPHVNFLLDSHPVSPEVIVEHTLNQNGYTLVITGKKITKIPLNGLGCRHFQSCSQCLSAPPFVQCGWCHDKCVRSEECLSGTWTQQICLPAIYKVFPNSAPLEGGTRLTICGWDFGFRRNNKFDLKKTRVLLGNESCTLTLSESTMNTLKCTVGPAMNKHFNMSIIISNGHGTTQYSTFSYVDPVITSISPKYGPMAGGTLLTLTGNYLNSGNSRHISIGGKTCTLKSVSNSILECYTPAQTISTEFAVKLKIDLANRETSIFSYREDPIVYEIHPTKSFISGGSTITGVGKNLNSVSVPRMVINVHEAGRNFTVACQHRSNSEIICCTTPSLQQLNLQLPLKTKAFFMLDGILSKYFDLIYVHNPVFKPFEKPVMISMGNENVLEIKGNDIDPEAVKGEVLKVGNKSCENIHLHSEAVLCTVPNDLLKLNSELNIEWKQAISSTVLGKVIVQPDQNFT
EC50 [1] [nM],antigen binding at 1 nM HGFR relative to wild type [2],Binder
4.4,–,"emibetuzumab (wild type), soluble IgG1 (antibody, V domains shown) VH: QVQLVQSGAEVKKPGASVKVSCKASGYTFTDYYMHWVRQAPGQGLEWMGRVNPNRRGTTYNQKFEGRVTMTTDTSTSTAYMELRSLRSDDTAVYYCARANWLDYWGQGTTVTVSS VL: DIQMTQSPSSLSASVGDRVTITCSVSSSVSSIYLHWYQQKPGKAPKLLIYSTSNLASGVPSRFSGSGSGTDFTLTISSLQPEDFATYYCQVYSGYPLTFGGGTKVEIK"
2.4,1.28 x of wild type,"EM2, emibetuzumab variant, soluble IgG1 (antibody, V domains shown) VH: QVQLVQSGAEVKKPGASVKVSCKASGYTFTDYYMHWVRQAPGQGLEWMGRVNPNGRGTTYNQKFEGRVTMTTDTSTSTAYMELRSLRSDDTAVYYCARSNLLEDWGQGTTVTVSS VL: DIQMTQSPSSLSASVGDRVTITCSVSSSVSSIYLHWYQQKPGKAPKLLIYSTSNLASGVPSRFSGSGSGTDFTLTISSLQPEDFATYYCQVYSGYPLTFGGGTKVEIK"
2.6,1.2 x of wild type,"EM1, emibetuzumab variant, soluble IgG1 (antibody, V domains shown) VH: QVQLVQSGAEVKKPGASVKVSCKASGYTFTDYYMHWVRQAPGQGLEWMGRVNPNGRGTTYNQKFEGRVTMTTDTSTSTAYMELRSLRSDDTAVYYCARSNLLDDWGQGTTVTVSS VL: DIQMTQSPSSLSASVGDRVTITCSVSSSVSSIYLHWYQQKPGKAPKLLIYSTSNLASGVPSRFSGSGSGTDFTLTISSLQPEDFATYYCQVYSGYPLTFGGGTKVEIK"
